Assay results reported in US6770448B2, “Fluorescent amyloid Aβ peptides and uses thereof” (The Regents of the University of California, priority 1997, dated 2004).

Tests used:
[1] = Gel filtration chromatography (Superdex 75 HR 10/30), oligomeric structure; type: physicochemical; conditions: Superdex 75, Buffer A
Method: The peptides were dissolved in DMSO for 30 minutes and then ten fold diluted in buffer A at a final protein concentration of 5-10 μM. A 200 μl aliquot was loaded onto a Superdex 75HR 10/30 column and eluted at a rate of 0.4 ml/min.
Gel filtration analysis was performed with a Pharmacia Superdex 75 HR 10/30 column using a Waters 490 multiple wavelength UV absorbance detector and Hewlett Packard 3250 fluorescence detector. Data were collected with a Waters Maxima chromatography data system. The running buffer used was 50 mM Tris, 0.1 M NaCl, pH 7.4 (Buffer A) in the presence of 10% or 2% DMSO. The column was calibrated with the following molecular weight standards: thyroglobulin, bovine serum albumin, ovalbumin, soybean trypsin inhibitor, ubiquitin, aprotinin, and insulin β-chain. The peptides were detected by UV absorbance at 280 nm and by fluorescence at 482 and 520 nm for IAEDANS and FM respectively.

[2] = Denaturation (unfolding) of Aβ in DMSO monitored by tyrosine or AEDANS fluorescence; type: physicochemical
Method: FIG. 3 is a graph illustrating the unfolding of Aβ measured by tyrosine fluorescence and 1,5-IAEDANS fluorescence. […] The protein concentration was 5-10 μM of Aβ.
For refolding experiments, samples were incubated in 100% DMSO for 1 hour at room temperature, and refolding was initiated by ten or fifty times dilution of the solvent in Tris buffered solution. The concentration of peptide ranged between 3 and 10 μM.
Absorption measurements were measured with a Perkin Elmer Lambda 3B UV-Vis spectrophotometer. Fluorescence spectra (excitation band pass 4 nm; emission band pass 8 nm) were measured either on an Aminco SLM 48000 or a SPEX Fluorolog F112A spectrofluorometer. Intrinsic tyrosine fluorescence was measured from 285 to 400 nm upon excitation at 275 nm. […] The lifetime measurements for FM were acquired using the 488 nm line of argon ion laser for excitation using a multiharmonic frequency-domain spectrofluorometer (Aminco 48000S).

Substance	elution position on gel filtration [1]	unfolding curve compared with AβC25-AEDANS [2]
14C-labeled Aβ 1-40: Aβ synthesized by incorporation of Fmoc-14C-Ala at position 2, 36 mCi/mmol	eluted at the position expected for a dimer	
AβC4FM: Aβ with cys in position 4 and labeled with FM		identical unfolding curves
AβC7FM: Aβ with cys in position 7 and labeled with FM		identical unfolding curves
